{"source": "paper PMC11695321", "origin": "cited, not measured here", "experiment_in_all_cases": "SPR", "key": {"NF-κB p50 (Homo sapiens)": {"target": "NF-κB p50 (Homo sapiens) (UniProt P19838)", "sequence (P19838 1-433)": "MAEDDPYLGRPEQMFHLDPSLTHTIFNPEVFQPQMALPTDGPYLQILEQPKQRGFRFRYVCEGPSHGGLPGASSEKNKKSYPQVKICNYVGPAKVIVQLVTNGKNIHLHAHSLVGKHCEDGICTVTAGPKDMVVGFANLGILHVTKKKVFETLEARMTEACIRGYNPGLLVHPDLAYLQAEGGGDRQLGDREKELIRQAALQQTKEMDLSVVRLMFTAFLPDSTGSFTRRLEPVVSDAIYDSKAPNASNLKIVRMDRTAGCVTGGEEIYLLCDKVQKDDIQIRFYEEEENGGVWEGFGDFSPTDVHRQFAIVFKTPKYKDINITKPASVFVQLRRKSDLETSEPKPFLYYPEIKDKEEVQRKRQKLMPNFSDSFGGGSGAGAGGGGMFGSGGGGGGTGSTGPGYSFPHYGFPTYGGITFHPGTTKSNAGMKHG"}, "IKKα (Homo sapiens)": {"target": "IKKα (Homo sapiens) (UniProt O15111)", "sequence (O15111 whole entry)": "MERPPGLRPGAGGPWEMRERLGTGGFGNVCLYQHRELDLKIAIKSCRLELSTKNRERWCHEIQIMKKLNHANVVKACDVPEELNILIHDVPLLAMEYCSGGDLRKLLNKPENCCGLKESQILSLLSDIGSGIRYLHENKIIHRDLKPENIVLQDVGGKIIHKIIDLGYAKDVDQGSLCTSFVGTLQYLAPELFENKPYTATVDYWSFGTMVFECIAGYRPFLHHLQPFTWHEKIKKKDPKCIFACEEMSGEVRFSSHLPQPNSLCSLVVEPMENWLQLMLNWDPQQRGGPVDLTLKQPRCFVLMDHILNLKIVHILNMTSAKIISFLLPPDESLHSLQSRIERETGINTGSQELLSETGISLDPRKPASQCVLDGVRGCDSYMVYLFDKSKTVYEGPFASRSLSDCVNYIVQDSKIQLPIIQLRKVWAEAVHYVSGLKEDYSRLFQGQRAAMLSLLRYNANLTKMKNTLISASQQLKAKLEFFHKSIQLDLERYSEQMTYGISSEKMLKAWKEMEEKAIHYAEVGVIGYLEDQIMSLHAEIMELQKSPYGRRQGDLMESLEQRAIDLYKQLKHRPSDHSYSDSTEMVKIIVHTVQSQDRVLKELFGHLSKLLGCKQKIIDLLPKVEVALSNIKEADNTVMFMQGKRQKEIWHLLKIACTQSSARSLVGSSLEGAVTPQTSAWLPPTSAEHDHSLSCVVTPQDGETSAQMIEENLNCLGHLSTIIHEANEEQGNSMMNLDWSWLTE"}, "IKKβ (Homo sapiens)": {"target": "IKKβ (Homo sapiens) (UniProt O14920)", "sequence (O14920 whole entry)": "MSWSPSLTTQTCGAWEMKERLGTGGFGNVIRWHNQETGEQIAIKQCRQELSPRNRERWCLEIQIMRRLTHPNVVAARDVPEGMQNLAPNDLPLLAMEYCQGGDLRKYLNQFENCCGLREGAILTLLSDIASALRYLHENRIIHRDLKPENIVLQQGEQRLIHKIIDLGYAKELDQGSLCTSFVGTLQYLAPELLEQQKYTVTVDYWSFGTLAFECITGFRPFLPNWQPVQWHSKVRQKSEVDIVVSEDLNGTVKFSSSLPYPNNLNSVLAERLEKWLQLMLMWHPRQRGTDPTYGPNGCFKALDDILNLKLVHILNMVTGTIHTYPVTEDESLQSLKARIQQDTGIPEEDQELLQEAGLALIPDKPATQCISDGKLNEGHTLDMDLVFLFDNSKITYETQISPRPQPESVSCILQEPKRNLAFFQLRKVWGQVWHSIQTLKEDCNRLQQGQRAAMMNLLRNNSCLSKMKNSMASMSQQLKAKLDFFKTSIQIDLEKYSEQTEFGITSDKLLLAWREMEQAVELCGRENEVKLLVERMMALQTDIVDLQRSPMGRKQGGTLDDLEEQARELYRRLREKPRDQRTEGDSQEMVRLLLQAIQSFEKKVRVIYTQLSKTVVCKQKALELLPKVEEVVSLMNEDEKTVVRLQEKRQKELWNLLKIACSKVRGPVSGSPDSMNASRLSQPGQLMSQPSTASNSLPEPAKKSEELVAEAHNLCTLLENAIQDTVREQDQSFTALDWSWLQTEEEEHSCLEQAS"}}}
{"substance": "melittin (from UniProt P01501)", "values": [{"measurement": "Kd", "setting": "NF-κB p50 (Homo sapiens)", "result": 1.01, "unit": "nM"}, {"measurement": "Kd", "setting": "IKKα (Homo sapiens)", "result": 4600, "unit": "nM"}, {"measurement": "Kd", "setting": "IKKβ (Homo sapiens)", "result": 1.34, "unit": "nM"}]}
